From patent US20030216321A1 (REGENTS OF THE UNIVERSITY OF MICHIGAN, published 2003)
Ends that are not written are not given here.

What was measured:
[1] = molecular target: T1, non-covalent PAI-1-anhydrotrypsin complex (human; bovine, UniProt P00760 24-246, anhydrotrypsin (chemically modified active site; the residue is not given)); assay: solid phase assay on nVn-coated plates with 1 µM anhydrotrypsin in all wells (FIG. 28)
T1 construct: Formed in the well: 1 µM anhydrotrypsin present during the PAI-1 incubation step; also called PAI-1 in association with anhydrotrypsin
Procedure: Briefly, Vn at 1 µg/ml in phosphate buffered saline (PBS), was coated overnight onto Immulon 2 (Dynatech) rmicrotiter plates in a volume of 100 μl at 4° C., and all subsequent steps were performed at room temperature. The plates were washed with PBS followed by dH₂O, allowed to air dry for 15 min., and then blocked with 200 μl of 3% bovine serum albumin in PBS for 30 minutes.

PAI-1:uPA complex = molecular target: T2, PAI-1:uPA complex (human, UniProt P00749 21-431); assay: solid phase assay on nVn-coated plates, anti-PAI-1 detection (FIG. 27)
T2 construct: also called uPA-PAI-1 complex; UPA-PAI-1

PAI-1:tPA complex = molecular target: T3, PAI-1:tPA complex (human, UniProt P00750 36-562); assay: as above
T3 construct: also called tPA-PAI-1 complex

[2] = molecular target: T4, recombinant active wild-type PAI-1 (plasminogen activator inhibitor type 1) (human, UniProt P05121 24-402); assay: competitive inhibition of active PAI-1 binding to immobilized nVn by solution-phase Vn, ELISA
T4 construct: Serpin; Bacterially expressed human PAI-1 (Molecular Innovations), active conformation (>95%); also called wtPAI-1; active PAI-1
Procedure: IC₅₀ values for the inhibition by solution-phase Vn were calculated using a four parameter logistic fit from the GraFit program (Erithacus Software). […] The latter was calculated based on the fit of binding data in the absence of competitor Vn (FIG. 37) by equation 1.

[3] = molecular target: T4, recombinant active wild-type PAI-1 …; assay: 6.4 µM active PAI-1 with 200 µM peptide; thermodenaturation, mass spectra, SDS-PAGE
Source text: The free peptide was then removed by chromatography on Heparin Sepharose.

B1: native human vitronectin (ligand, UniProt P04004 20-478, looked up)
chain: DQESCKGRCTEGFNVDKKCQCDELCSYYQSCCTDYTAECKPQVTRGDVFTMPEDEYTVYDDGEEKNNATVHEQVGGPSLTSDLQAQSKGNPEQTPVLKPEEEAPAPEVGASKPEGIDSRPETLHPGRPQPPAEEELCSGKPFDAFTDLKNGSLFAFRGQYCYELDEKAVRPGYPKLIRDVWGIEGPIDAAFTRINCQGKTYLFKGSQYWRFEDGVLDPDYPRNISDGFDGIPDNVDAALALPAHSYSGRERVYFFKGKQYWEYQFQHQPSQEECEGSSLSAVFEHFAMMQRDSWEDIFELLFWGRTSAGTRQPQFISRDWHGVPGQVDAAMAGRIYISGMAPRPSLAKKQRFRHRNRKGYRSQRGHSRGRNQNSRRPSRATWLSLFSSEESNLGANNYDDYRMDWLVPATCEPIQSVFFFSGDKYYRVNLRTRRVDTVDPPYPRSIAQYWLGCPAPGHL
notes: Predominantly monomeric; also called nVn; native Vn
B1 was tested, and the binding result [1] was “binds”, the Kd (PAI-1:uPA complex) was > 100 nM and the Kd (PAI-1:tPA complex) was > 100 nM.

B2: urea denatured human vitronectin (conformationally altered) (ligand, UniProt P04004 20-478, looked up)
chain: B1 chain
notes: also called dVn; uVn
For B2, the “fold difference of IC50 against solution-phase nVn” value [2] was ~6 fold.

B3: synthetic RCL peptide Ac-Thr-Val-Ala-Ser-Ser-Ser-Thr-Ala (PAI-1 P14 to P7) (peptide)
peptide: Ac-TVASSSTA
notes: also called eight residue synthetic peptide
B3: binds [3].
